# Measurements: article PMC5735676, “Leishmania braziliensis SCD6 and RBP42 proteins, two factors with RNA binding capacity”
# T1: rLbRBP42 (Leishmania braziliensis, UniProt A4HIP3 1-338)
# T1 sequence: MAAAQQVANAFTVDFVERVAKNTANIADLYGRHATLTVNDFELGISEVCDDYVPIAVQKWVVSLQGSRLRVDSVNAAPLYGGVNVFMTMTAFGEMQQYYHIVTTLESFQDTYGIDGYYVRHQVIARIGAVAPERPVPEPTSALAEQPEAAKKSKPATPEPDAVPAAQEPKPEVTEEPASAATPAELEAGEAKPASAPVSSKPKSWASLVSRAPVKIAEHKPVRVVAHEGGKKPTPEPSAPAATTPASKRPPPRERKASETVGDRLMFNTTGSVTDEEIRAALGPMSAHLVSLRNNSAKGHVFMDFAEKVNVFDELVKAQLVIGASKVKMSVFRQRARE
# T2: rLbSCD6 (Leishmania braziliensis, UniProt A4HEG4 1-294)
# T2 sequence: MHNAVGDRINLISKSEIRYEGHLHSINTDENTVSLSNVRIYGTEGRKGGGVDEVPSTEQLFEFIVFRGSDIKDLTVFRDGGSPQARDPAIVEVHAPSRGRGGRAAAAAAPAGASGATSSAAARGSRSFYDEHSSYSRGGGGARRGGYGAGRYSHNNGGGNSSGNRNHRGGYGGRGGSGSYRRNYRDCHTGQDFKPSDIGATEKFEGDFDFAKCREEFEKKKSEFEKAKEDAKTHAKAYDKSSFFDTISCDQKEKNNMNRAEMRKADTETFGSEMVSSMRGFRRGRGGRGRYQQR
# B1: 3' UTR-II.1 antisense (ssRNA)
# RNA: UACAGAAAAUAAAAAAACACACACAAAAUAUAAAAAGAGGAAAGCAUGAUU
# B2: 3' UTR-II.1 motif (ssRNA)
# RNA: AUGUCUUUUAUUUUUUUGUGUGUGUUUUAUAUUUUUCUCCUUUCGUACUAA
# B3: 3' UTR-II.1 motif, cold (ssRNA)
# RNA: AUGUCUUUUAUUUUUUUGUGUGUGUUUUAUAUUUUUCUCCUUUCGUACUAA
# Columns and labels:
# rLbRBP42 [1] = target: T1, rLbRBP42; test: competition; vs 12.5 nM labeled N2; up to 8-fold (100 nM) cold RNA; EMSA: 10 mM HEPES pH 7.3, 20 mM KCl, 6 mM MgCl2, 1 mM DTT, 0.05% NP-40, 1 ug/ul heparin, 40 U RNaseOUT, room temperature 20 min, 6% native PAGE 0.5x TBE; pull-down at room temperature on His-tag Dynabeads, 1x pull-down buffer (composition not stated); settings: protein: recombinant; tags: His tag (nickel column)
# rLbSCD6 [2] = target: T2, rLbSCD6; test: as above; settings: protein: recombinant; tags: His tag (nickel column)
# rLbSCD6 [3] = target: T2, rLbSCD6; test: EMSA; 6 mM Mg2+, heparin; 12.5 nM RNA; EMSA: 10 mM HEPES pH 7.3, 20 mM KCl, 6 mM MgCl2, 1 mM DTT, 0.05% NP-40, 1 ug/ul heparin, 40 U RNaseOUT, room temperature 20 min, 6% native PAGE 0.5x TBE; pull-down at room temperature on His-tag Dynabeads, 1x pull-down buffer (composition not stated); settings: protein: recombinant; tags: His tag (nickel column); label: 5' digoxigenin
# rLbRBP42 [4] = target: T1, rLbRBP42; test: EMSA; 6 mM Mg2+, heparin; 3 pM protein, 12.5 nM RNA; EMSA: 10 mM HEPES pH 7.3, 20 mM KCl, 6 mM MgCl2, 1 mM DTT, 0.05% NP-40, 1 ug/ul heparin, 40 U RNaseOUT, room temperature 20 min, 6% native PAGE 0.5x TBE; pull-down at room temperature on His-tag Dynabeads, 1x pull-down buffer (composition not stated); settings: protein: recombinant; tags: His tag (nickel column); label: 5' digoxigenin
# rLbSCD6 [5] = target: T2, rLbSCD6; test: competition; vs 12.5 nM labeled N2; completely competed at 1-fold cold RNA; EMSA: 10 mM HEPES pH 7.3, 20 mM KCl, 6 mM MgCl2, 1 mM DTT, 0.05% NP-40, 1 ug/ul heparin, 40 U RNaseOUT, room temperature 20 min, 6% native PAGE 0.5x TBE; pull-down at room temperature on His-tag Dynabeads, 1x pull-down buffer (composition not stated); settings: protein: recombinant; tags: His tag (nickel column)
# rLbRBP42 [6] = target: T1, rLbRBP42; test: competition; vs 12.5 nM labeled N2; decrease of complex only at 4-fold cold RNA; EMSA: 10 mM HEPES pH 7.3, 20 mM KCl, 6 mM MgCl2, 1 mM DTT, 0.05% NP-40, 1 ug/ul heparin, 40 U RNaseOUT, room temperature 20 min, 6% native PAGE 0.5x TBE; pull-down at room temperature on His-tag Dynabeads, 1x pull-down buffer (composition not stated); settings: protein: recombinant; tags: His tag (nickel column)
binder,measurement,setting,value
B1,binding result,rLbRBP42 [1],no binding
same,binding result,rLbSCD6 [2],no binding
B2,binding result,rLbSCD6 [3],binds
same,binding result,rLbRBP42 [4],binds
B3,binding result,rLbSCD6 [5],binds
same,binding result,rLbRBP42 [6],binds
